Test results taken from patent US20250027073A1.

Molecular target: Flu-m158-66-TCR, on Jurkat T cells

Substance: Influenza M158-66 ([…]) presented by HLA-A0201, single-chain trimer of pMHC displayed on the lentiviral surface (from UniProt P61769 21-119) (peptide-MHC)
- percent of T cells GFP+: > 87%
